Assay results reported in the supplement of paper PMC5998384.

What was measured:
HeLa Kyoto [1] = experiment: melting temperature (median over replicates), in situ; higher = more thermally stable
HeLa Kyoto [2] = experiment: solubility in G1/S (NP-40 vs SDS abundance) (log2 ratio); higher = more soluble; conditions: cell cycle stage: G1/S
HeLa Kyoto [3] = experiment: solubility change mitosis vs G1/S (difference of NP-40 vs SDS log2 ratios) (log2 ratio difference); higher = more soluble in mitosis
HeLa Kyoto [4] = experiment: thermal stability score vs G1/S (z-score of summed log2 fold changes over temperatures); higher = more thermally stable than in G1/S
[5] = cell cycle stage: early G1 (4.5 h after nocodazole release)
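Throughout, for melting temperature (median over replicates), in situ: HeLa Kyoto cells synchronized by double thymidine or nocodazole block, proteins quantified by TMT10plex mass spectrometry, three independent biological replicates.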
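Throughout, for solubility change mitosis vs G1/S (difference of NP-40 vs SDS log2 ratios): synchronized HeLa Kyoto cells (double thymidine block for G1/S, nocodazole release for mitosis), protein amounts in NP-40 versus SDS lysates quantified by mass spectrometry, three biological replicates.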
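Throughout, for solubility in G1/S (NP-40 vs SDS abundance): HeLa Kyoto cells arrested at G1/S by double thymidine block, proteins quantified by TMT10plex mass spectrometry in mild NP-40 versus SDS extracts, three biological replicates.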
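Throughout, for thermal stability score vs G1/S (z-score of summed log2 fold changes over temperatures): synchronized HeLa Kyoto cells, proteins quantified by TMT10plex mass spectrometry, three biological replicates, mitosis taken 0.5 h after nocodazole release, G1/S directly after double thymidine block.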

| Sequence | melting temperature (HeLa Kyoto [1]; cell cycle stage: G1/S) [°C] | melting temperature (HeLa Kyoto [1]; cell cycle stage: mitosis) [°C] | solubility in G1/S (log2) (HeLa Kyoto [2]) | solubility change mitosis (log2) (HeLa Kyoto [3]) | thermal stability score (HeLa Kyoto [4]; [5]) | thermal stability score (HeLa Kyoto [4]; cell cycle stage: mitosis) |
| --- | --- | --- | --- | --- | --- | --- |
| MENSTTTISREELEELQEAFNKIDIDNSGYVSDYELQDLFKEASLPLPGYKVREIVEKILSVADSNKDGKISFEEFVSLMQELKSKDISKTFRKIINKREGITAIGGTSTISSEGTQHSYSEEEKVAFVNWINKALENDPDCKHLIPMNPNDDSLFKSLADGILLCKMINLSEPDTIDERAINKKKLTPFTISENLNLALNSASAIGCTVVNIGASDLKEGKPHLVLGLLWQIIKVGLFADIEISRNEALIALLNEGEELEELMKLSPEELLLRWVNYHLTNAGWHTISNFSQDIKDSRAYFHLLNQIAPKGGEDGPAIAIDLSGINETNDLKRAGLMLQEADKLGCKQFVTPADVVSGNPKLNLAFVANLFNTYPCLHKPNNNDIDMNLLEGESKEERTFRNWMNSLGVNPYINHLYSDLADALVIFQLYEMIRVPVNWSHVNKPPYPALGGNMKKIENCNYAVELGKNKAKFSLVGIAGQDLNEGNSTLTLALVWQLMRRYTLNVLSDLGEGEKVNDEIIIKWVNQTLKSANKKTSISSFKDKSISTSLPVLDLIDAIAPNAVRQEMIRRENLSDEDKLNNAKYAISVARKIGARIYALPDDLVEVKPKMVMTVFACLMGKGLNRIK [PLS1] | 52.6 | 53.7 | 0.301 | -0.0585 | 0.863 | 0.264 |
| MENTENSVDSKSIKNLEPKIIHGSESMDSGISLDNSYKMDYPEMGLCIIINNKNFHKSTGMTSRSGTDVDAANLRETFRNLKYEVRNKNDLTREEIVELMRDVSKEDHSKRSSFVCVLLSHGEEGIIFGTNGPVDLKKITNFFRGDRCRSLTGKPKLFIIQACRGTELDCGIETDSGVDDDMACHKIPVEADFLYAYSTAPGYYSWRNSKDGSWFIQSLCAMLKQYADKLEFMHILTRVNRKVATEFESFSFDATFHAKKQIPCIVSMLTKELYFYH [CASP3] | 55.7 | 56.3 | 0.135 | 0.0123 | 0.22 | -0.0196 |
| MEPAEQPSELVSAEGRNRKAVLCQRCGSRVLQPGTALFSRRQLFLPSMRKKPALSDGSNPDGDLLQEHWLVEDMFIFENVGFTKDVGNIKFLVCADCEIGPIGWHCLDDKNSFYVALERVSHE [RABIF] | 52.2 | 51.7 | 0.225 | -0.0782 | 0.827 | 0.411 |
| MEPAPSEVRLAVREAIHALSSSEDGGHIFCTLESLKRYLGEMEPPALPREKEEFASAHFSPVLRCLASRLSPAWLELLPHGRLEELWASFFLEGPADQAFLVLMETIEGAAGPSFRLMKMARLLARFLREGRLAVLMEAQCRQQTQPGFILLRETLLGKVVALPDHLGNRLQQENLAEFFPQNYFRLLGEEVVRVLQAVVDSLQGGLDSSVSFVSQVLGKACVHGRQQEILGVLVPRLAALTQGSYLHQRVCWRLVEQVPDRAMEAVLTGLVEAALGPEVLSRLLGNLVVKNKKAQFVMTQKLLFLQSRLTTPMLQSLLGHLAMDSQRRPLLLQVLKELLETWGSSSAIRHTPLPQQRHVSKAVLICLAQLGEPELRDSRDELLASMMAGVKCRLDSSLPPVRRLGMIVAEVVSARIHPEGPPLKFQYEEDELSLELLALASPQPAGDGASEAGTSLVPATAEPPAETPAEIVDGGVPQAQLAGSDSDLDSDDEFVPYDMSGDRELKSSKAPAYVRDCVEALTTSEDIERWEAALRALEGLVYRSPTATREVSVELAKVLLHLEEKTCVVGFAGLRQRALVAVTVTDPAPVADYLTSQFYALNYSLRQRMDILDVLTLAAQELSRPGCLGRTPQPGSPSPNTPCLPEAAVSQPGSAVASDWRVVVEERIRSKTQRLSKGGPRQGPAGSPSRFNSVAGHFFFPLLQRFDRPLVTFDLLGEDQLVLGRLAHTLGALMCLAVNTTVAVAMGKALLEFVWALRFHIDAYVRQGLLSAVSSVLLSLPAARLLEDLMDELLEARSWLADVAEKDPDEDCRTLALRALLLLQRLKNRLLPPASP [TELO2] | 48.8 | 49.1 | -0.341 | -0.103 | -0.195 | 0.325 |
| MEPATAPRPDMAPELTPEEEQATKQFLEEINKWTVQYNVSPLSWNVAVKFLMARKFDVLRAIELFHSYRETRRKEGIVKLKPHEEPLRSEILSGKFTILNVRDPTGASIALFTARLHHPHKSVQHVVLQALFYLLDRAVDSFETQRNGLVFIYDMCGSNYANFELDLGKKVLNLLKGAFPARLKKVLIVGAPIWFRVPYSIISLLLKDKVRERIQILKTSEVTQHLPRECLPENLGGYVKIDLATWNFQFLPQVNGHPDPFDEIILFSLPPALDWDSVHVPGPHAMTIQELVDYVNARQKQGIYEEYEDIRRENPVGTFHCSMSPGNLEKNRYGDVPCLDQTRVKLTKRSGHTQTDYINASFMDGYKQKNAYIGTQGPLENTYRDFWLMVWEQKVLVIVMTTRFEEGGRRKCGQYWPLEKDSRIRFGFLTVTNLGVENMNHYKKTTLEIHNTEERQKRQVTHFQFLSWPDYGVPSSAASLIDFLRVVRNQQSLAVSNMGARSKGQCPEPPIVVHCSAGIGRTGTFCSLDICLAQLEELGTLNVFQTVSRMRTQRAFSIQTPEQYYFCYKAILEFAEKEGMVSSGQNLLAVESQ [PTPN9] | 51.1 | 51.7 | -0.0379 | -0.094 | 1.02 | -0.717 |
| MEPFTNDRLQLPRNMIENSMFEEEPDVVDLAKEPCLHPLEPDEVEYEPRGSRLLVRGLGEHEMEEDEEDYESSAKLLGMSFMNRSSGLRNSATGYRQSPDGACSVPSARTMVVCAFVIVVAVSVIMVIYLLPRCTFTKEGCHKKNQSIGLIQPFATNGKLFPWAQIRLPTAVVPLRYELSLHPNLTSMTFRGSVTISVQALQVTWNIILHSTGHNISRVTFMSAVSSQEKQAEILEYAYHGQIAIVAPEALLAGHNYTLKIEYSANISSSYYGFYGFSYTDESNEKKYFAATQFEPLAARSAFPCFDEPAFKATFIIKIIRDEQYTALSNMPKKSSVVLDDGLVQDEFSESVKMSTYLVAFIVGEMKNLSQDVNGTLVSIYAVPEKIGQVHYALETTVKLLEFFQNYFEIQYPLKKLDLVAIPDFEAGAMENWGLLTFREETLLYDSNTSSMADRKLVTKIIAHELAHQWFGNLVTMKWWNDLWLNEGFATFMEYFSLEKIFKELSSYEDFLDARFKTMKKDSLNSSHPISSSVQSSEQIEEMFDSLSYFKGSSLLLMLKTYLSEDVFQHAVVLYLHNHSYASIQSDDLWDSFNEVTNQTLDVKRMMKTWTLQKGFPLVTVQKKGKELFIQQERFFLNMKPEIQPSDTSYLWHIPLSYVTEGRNYSKYQSVSLLDKKSGVINLTEEVLWVKVNINMNGYYIVHYADDDWEALIHQLKINPYVLSDKDRANLINNIFELAGLGKVPLKRAFDLINYLGNENHTAPITEALFQTDLIYNLLEKLGYMDLASRLVTRVFKLLQNQIQQQTWTDEGTPSMRELRSALLEFACTHNLGNCSTTAMKLFDDWMASNGTQSLPTDVMTTVFKVGAKTDKGWSFLLGKYISIGSEAEKNKILEALASSEDVRKLYWLMKSSLNGDNFRTQKLSFIIRTVGRHFPGHLLAWDFVKENWNKLVQKFPLGSYTIQNIVAGSTYLFSTKTHLSEVQAFFENQSEATFRLRCVQEALEVIQLNIQWMEKNLKSLTWWL [LNPEP] | 56.8 | 57.1 | 0.198 | -0.15 | -1.44 | -1.44 |
| MEPGPDGPAASGPAAIREGWFRETCSLWPGQALSLQVEQLLHHRRSRYQDILVFRSKTYGNVLVLDGVIQCTERDEFSYQEMIANLPLCSHPNPRKVLIIGGGDGGVLREVVKHPSVESVVQCEIDEDVIQVSKKFLPGMAIGYSSSKLTLHVGDGFEFMKQNQDAFDVIITDSSDPMGPAESLFKESYYQLMKTALKEDGVLCCQGECQWLHLDLIKEMRQFCQSLFPVVAYAYCTIPTYPSGQIGFMLCSKNPSTNFQEPVQPLTQQQVAQMQLKYYNSDVHRAAFVLPEFARKALNDVS [SRM] | 51.8 | 51.9 | 0.283 | -0.232 | 0.149 | 0.82 |
| MEPLAAYPLKCSGPRAKVFAVLLSIVLCTVTLFLLQLKFLKPKINSFYAFEVKDAKGRTVSLEKYKGKVSLVVNVASDCQLTDRNYLGLKELHKEFGPSHFSVLAFPCNQFGESEPRPSKEVESFARKNYGVTFPIFHKIKILGSEGEPAFRFLVDSSKKEPRWNFWKYLVNPEGQVVKFWKPEEPIEVIRPDIAALVRQVIIKKKEDL [GPX8] | 52.8 | 52.3 | 0.0659 | -0.208 | 3.63 | 4.95 |
| MEPSSLELPADTVQRIAAELKCHPTDERVALHLDEEDKLRHFRECFYIPKIQDLPPVDLSLVNKDENAIYFLGNSLGLQPKMVKTYLEEELDKWAKIAAYGHEVGKRPWITGDESIVGLMKDIVGANEKEIALMNALTVNLHLLMLSFFKPTPKRYKILLEAKAFPSDHYAIESQLQLHGLNIEESMRMIKPREGEETLRIEDILEVIEKEGDSIAVILFSGVHFYTGQHFNIPAITKAGQAKGCYVGFDLAHAVGNVELYLHDWGVDFACWCSYKYLNAGAGGIAGAFIHEKHAHTIKPALVGWFGHELSTRFKMDNKLQLIPGVCGFRISNPPILLVCSLHASLEIFKQATMKALRKKSVLLTGYLEYLIKHNYGKDKAATKKPVVNIITPSHVEERGCQLTITFSVPNKDVFQELEKRGVVCDKRNPNGIRVAPVPLYNSFHDVYKFTNLLTSILDSAETKN [KYNU] | 61.5 | 62.3 | 0.121 | -0.229 | -0.273 | -0.415 |
| MEQLRAAARLQIVLGHLGRPSAGAVVAHPTSGTISSASFHPQQFQYTLDNNVLTLEQRKFYEENGFLVIKNLVPDADIQRFRNEFEKICRKEVKPLGLTVMRDVTISKSEYAPSEKMITKVQDFQEDKELFRYCTLPEILKYVECFTGPNIMAMHTMLINKPPDSGKKTSRHPLHQDLHYFPFRPSDLIVCAWTAMEHISRNNGCLVVLPGTHKGSLKPHDYPKWEGGVNKMFHGIQDYEENKARVHLVMEKGDTVFFHPLLIHGSGQNKTQGFRKAISCHFASADCHYIDVKGTSQENIEKEVVGIAHKFFGAENSVNLKDIWMFRARLVKGERTNL [PHYH] | 51.6 | 52.4 | 0.298 | -0.191 | 2.97 | 2.13 |
| MEQVAEGARVTAVPVSAADSTEELAEVEEGVGVVGEDNDAAARGAEAFGDSEEDGEDVFEVEKILDMKTEGGKVLYKVRWKGYTSDDDTWEPEIHLEDCKEVLLEFRKKIAENKAKAVRKDIQRLSLNNDIFEANSDSDQQSETKEDTSPKKKKKKLRQREEKSPDDLKKKKAKAGKLKDKSKPDLESSLESLVFDLRTKKRISEAKEELKESKKPKKDEVKETKELKKVKKGEIRDLKTKTREDPKENRKTKKEKFVESQVESESSVLNDSPFPEDDSEGLHSDSREEKQNTKSARERAGQDMGLEHGFEKPLDSAMSAEEDTDVRGRRKKKTPRKAEDTRENRKLENKNAFLEKKTVPKKQRNQDRSKSAAELEKLMPVSAQTPKGRRLSGEERGLWSTDSAEEDKETKRNESKEKYQKRHDSDKEEKGRKEPKGLKTLKEIRNAFDLFKLTPEEKNDVSENNRKREEIPLDFKTIDDHKTKENKQSLKERRNTRDETDTWAYIAAEGDQEVLDSVCQADENSDGRQQILSLGMDLQLEWMKLEDFQKHLDGKDENFAATDAIPSNVLRDAVKNGDYITVKVALNSNEEYNLDQEDSSGMTLVMLAAAGGQDDLLRLLITKGAKVNGRQKNGTTALIHAAEKNFLTTVAILLEAGAFVNVQQSNGETALMKACKRGNSDIVRLVIECGADCNILSKHQNSALHFAKQSNNVLVYDLLKNHLETLSRVAEETIKDYFEARLALLEPVFPIACHRLCEGPDFSTDFNYKPPQNIPEGSGILLFIFHANFLGKEVIARLCGPCSVQAVVLNDKFQLPVFLDSHFVYSFSPVAGPNKLFIRLTEAPSAKVKLLIGAYRVQLQ [MPHOSPH8] | 49.3 | 50 | -1.16 | 0.82 | 0.43 | 1.88 |
